We go through 29 molecules from patent US20030148264A1, “Phage displayed PDZ domain ligands” (GENENTECH, INC., priority 2001, published 2003).

Read-outs that look alike come from different tables or passages of the source. Where no end group is shown, it is not given here.

In assay [1] the target is T1, Human Scribble (KIAA0147, NP_056171.1) PDZ2 (aa 788-913) (Homo sapiens, UniProt Q14160).
T1 construct: Human Scribble (KIAA0147, NP_056171.1) PDZ2 (aa 788-913); GST; made in house
T1 sequence (Q14160 788-913 isoform Q14160-2): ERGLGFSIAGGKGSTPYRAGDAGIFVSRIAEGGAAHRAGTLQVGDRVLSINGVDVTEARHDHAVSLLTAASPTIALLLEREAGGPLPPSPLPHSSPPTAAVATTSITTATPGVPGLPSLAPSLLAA
Kind of assay: Carboxyl-terminal phage display binding selection. The following applies: number of phage-selected clones with this sequence, siblings counted as individuals. An excerpt: Phage display technology was further employed essentially as described above, with minor modifications, to select ligands of a variety of PDZ domains (including additional, independent rounds of selection for ERBIN PDZ and MAGI3 PDZ3). Briefly, peptide ligands were selected from pools of randomized peptides. […] The peptides were fused to the M13 phage major coat proteins such that the C-termini of the randomized peptides were free and available for binding. PDZ domains were utilized as their GST-fusions (referred to in this Example simply as “PDZ domains”). The particular amino acids comprising each PDZ domain target are indicated in the heading of Tables 11-29.
Peptide ligands were selected and identified for 17 (18 including ERBIN) PDZ domains. […] At the bottom of each table, the occurrence of each amino acid residue is expressed as a percentage of the total number of residues in the relevant position. Siblings (peptides with identical DNA that appear as more than one copy) were counted as individuals. The numbers for occurrence were corrected for codon usage. The relative codon usage is indicated after each amino acid in the header of the bottom section of each table. “n” refers to the number of sequences (siblings counted as individuals) on which the occurrence value is based; this number is also shown as normalized with respect to codon usage.

In assay [2] the target is T2, hZO1 PDZ1 (Homo sapiens, UniProt Q07157).
T2 construct: Human ZO1 (NM_003257) PDZ1; GST; made in house
T2 sequence (Q07157 23-110): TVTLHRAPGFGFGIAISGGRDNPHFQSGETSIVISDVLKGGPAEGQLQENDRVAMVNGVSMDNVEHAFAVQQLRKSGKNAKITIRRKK
Put plainly: IC50 (nM) | hZO1 PDZ1 | 5 nM | B01-88 | Bio-GGWRWTTWL (SEQ ID NO: 684) | 36 nM. The procedure:
Table printed on a drawing sheet, FIG. 12A
Head of the field: IC50 (nM) | hZO1 PDZ1 | 5 nM | B01-88 | Bio-GGWRWTTWL (SEQ ID NO: 684) | 36 nM
The patent's description of the figure: FIG. 12. IC50 values indicating binding affinities of various peptides to PDZ domains
First copying reader's note: Upper left part of a table split over FIG. 12A-12D; further receptor columns and further peptides are on the other sheets.
Where the first naming reader finds the target: head: IC50 (nM) | hZO1 PDZ1 | 5 nM | B01-88

Assay [3] concerns the target GST-MAGI-3 PDZ 2 (aa. 584-707 of SEQ ID NO:200) (human) [GST: P08515]. Kind of assay: alanine scan, competition ELISA.
For assay [4] the target is unchanged. Put plainly: competition ELISA: peptide blocks GST-PDZ binding to immobilized peptide.
In assay [5] the target is T3, MAGI 3 PDZ3 (Homo sapiens, UniProt Q5TCQ9).
T3 construct: PDZ2 and PDZ3 were purified as glutathione S-transferase (GST) fusions from E coli; GST; made in house; host or cells: E. coli
T3 sequence (Q5TCQ9 726-808 limits assumed): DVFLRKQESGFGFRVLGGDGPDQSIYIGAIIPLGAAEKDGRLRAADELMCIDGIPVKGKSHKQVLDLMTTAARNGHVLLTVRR
Kind of assay: Competition ELISA, peptide blocking PDZ domain binding to immobilized peptide. An excerpt:
(§1) Many methods are known and can be used to identify the binding affinities of PDZ domain binding ligands (e.g. peptides, proteins, small mollecules, etc.); for example, binding affinities can be determined as IC50 values using competition ELISAs. The IC50 value is defined as the concentration of ligand which blocks 50% of PDZ domain binding to a ligand. For example, in solid phase assays, assay plates may be prepared by coating microwell plates (preferably treated to efficiently absorb protein) with neutravidin, avidin or streptavidin. Non-specific binding sites are then blocked through addition of a solution of bovine serum albumin (BSA) or other proteins (for example, nonfat milk) and then washed, preferably with a buffer containing a detergent, such as Tween-20. A biotinylated known PDZ-domain ligand (for example, the phage peptides or cognate protein as fusions with GST or other such molecule to facilitate purification and detection) is prepared and bound to the plate. Serial delutions of the ligand to be tested with a PDZ domain polypeptide arc prepared and contacted with the bound ligand. The plate coated with the immobilized ligandis washed before adding each binding reaction to the wells and briefly incubated. After further washing, the binding reactions are detected, often with an antibody recognizing the non-PDZ fusion partner and a labeled (such as horseradish peroxidase (HRP), alkaline phosphatase (AP), or a fluorescent tag such as fluorescein) secondary antibody recognizing the primary antibody. The plates are then developed with the appropriate substrate (depending on the label) and the signal quantified, such as using a spectrophotometric plate reader. The absorption signal may be fit to a binding curve using a least squares fit. Thus the ability of the various ligands to inhibit PDZ domain from binding a known PDZ-domain ligand can be measured.
(§2) Peptides corresponding to the selected sequences were synthesized and assayed for binding (Table 2). […] The data also confirmed that the minimal tetrapeptide selectants from the PDZ2 sort bind PDZ2 with high affinity. […] It appears that this large difference in binding affinity is attributable to the residue at P(−1), which is a Trp in the selected peptide as opposed to a Lys in PTEN/MMAC (compare HTQITWV with HTQITKV (SEQ ID NO:220), Table 2; The IC50 values are the concentrations of peptide that blocked 50% of PDZ domain binding to immobilized peptide in an ELISA).

The target in assay [6] is T4, MAGI 3 PDZ2 (Homo sapiens, UniProt Q5TCQ9).
T4 sequence (Q5TCQ9 584-707 isoform Q5TCQ9-2): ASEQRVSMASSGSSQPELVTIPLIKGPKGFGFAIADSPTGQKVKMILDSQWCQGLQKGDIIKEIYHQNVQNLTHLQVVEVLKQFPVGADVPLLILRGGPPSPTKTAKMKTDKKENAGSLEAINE
The assay is described as above. More on the design: made in house; host or cells: E. coli.
Source text: as §1
Prokaryotic: The ERBIN PDZ domain (aa. 1217-1371 of SEQ ID NO:201) or MAGI-3 PDZ 2 (aa. 584-707 of SEQ ID NO:200) were cloned into the EcoR 1/Not 1 or BamH 1/Not 1 sites of pGEX 6P-1 and pGEX 4T-3 E. coli expression vectors (Pharmacia) respectively. Expression and affinity purification of E coli expressed GST-proteins was performed as recommended by the manufacturer (Pharmacia).
as §2

Assay [7] addresses T5, ERBIN PDZ-GST fusion protein (aa. 1217-1371 of SEQ ID NO:201) (human, UniProt P08515 1-218 = GST). Kind of assay: competition ELISA: ERBIN PDZ-GST binding to immobilized biotin-PDZ 501.
The target of assay [8] is T5, ERBIN PDZ-GST fusion protein (aa. …). Put plainly: competition ELISA: ERBIN PDZ-GST binding to immobilized biotin-WETWV.
Assay [9] has the same target. The assay is described as above. The source holds these as a separate data set.
Assay [10] has the same target. The description is as above. The source holds these as a separate data set.
The mark [11] stands for this setting: MAGI 3 PDZ3, concentration of peptide that blocked 50% of PDZ domain binding to immobilized peptide in an ELISA, read-out: IC50 (μM) PDZ3.
Setting [12] is: MAGI 3 PDZ2, concentration of peptide that blocked 50% of PDZ domain binding to immobilized peptide in an ELISA, read-out: IC50 (μM) PDZ2.

T5 sequence (P08515 whole entry, the tested form may be a part): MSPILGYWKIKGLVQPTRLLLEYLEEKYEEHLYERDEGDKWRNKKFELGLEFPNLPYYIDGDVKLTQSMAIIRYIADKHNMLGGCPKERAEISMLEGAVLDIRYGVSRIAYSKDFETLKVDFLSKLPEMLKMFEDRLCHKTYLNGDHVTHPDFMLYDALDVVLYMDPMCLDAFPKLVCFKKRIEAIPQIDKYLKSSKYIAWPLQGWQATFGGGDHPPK
Chain of GST-MAGI-3 PDZ 2 (aa. 584-707 of SEQ ID NO:200) (human) [GST: P08515] (P08515 whole entry): as the sequence (P08515 whole entry, the tested form may be a part) above

In turn, “RSRYRFTDV [phage-selected peptide, Scribble PDZ2]” gave an occurence in assay [1] of 6.
The same measure, in the same setting: in the case of “LTVRETWV [phage-selected peptide, Scribble PDZ2]” it was 4.
“Ac-FETWL [3 | 01-08, SEQ ID NO: 642: N^AC-FETWL]” yielded an IC50 in [2] of 10400 nM.
ASWV (peptide) gave a fold reduction in binding against CSWV in [3] of 25 fold. In assay [4], this molecule registered an IC50 of 35 µM.
With TRWWFDI-NH2 [TRWWFDI-NH2], the IC50 in assay [5] (setting [11]) amounted to 300 µM.
With “HRVRETWV [phage-selected peptide, Scribble PDZ2]”, the occurence in [1] came out at 21.
As for CAWV (peptide), in assay [3], the fold reduction in binding against CSWV was found to be 5 fold. In assay [4], this molecule yielded an IC50 of 7.3 µM.
On to CSWA (peptide), for which the fold reduction in binding against CSWV in assay [3] was > 100 fold. Also, in assay [4], the IC50 came to 400 µM.
In assay [1], “AWFETWV [phage-selected peptide, Scribble PDZ2]” yielded an occurence of 2.
With CSAV (peptide), the fold reduction in binding against CSWV in assay [3] was > 100 fold. In assay [4], this molecule returned an IC50 of 200 µM.
As to “Ac-WRWTTWL [9 | 01-103, SEQ ID NO: 648: N^AC-WRWTTWL]”, it took 27 nM to reach half-maximal inhibition in assay [2] (IC50).
In the case of TRWWFDI-OH [TRWWFDI], the half-inhibitory concentration (IC50) was 0.9 µM in [5] (setting [11]) and > 1000 µM in assay [6] (setting [12]).
For the molecule HTQITKV [HTQITKV, reference compound], the figures for the half-inhibitory concentration (IC50) in [5] (setting [11]) and in [6] (setting [12]) were > 1000 µM and 200 µM, respectively.
Consider DGICSWV [DGICSWV], for which the figures for the IC50 in assay [5] and in assay [6] were > 1000 µM and 0.3 µM, respectively.
On to “Ac-YRWTTWL [10 | 01-28, SEQ ID NO: 649: N^AC-YRWTTWL]”, for which the concentration for half-maximal inhibition (IC50) in [2] was determined as 31 nM.
On to “Ac-WRWTTWV [13 | 01-31, SEQ ID NO: 652: N^AC-WRWTTWV]”, for which the IC50 in assay [2] worked out at 0.0443 nM.
“STGKFFDTWV [phage-selected peptide, Scribble PDZ2]” had an occurence in assay [1] of 1.
On to ASKVTWV [ASKVTWV], for which the values for the concentration for half-maximal inhibition (IC50) in assay [5] and in assay [6] were > 1000 µM and 0.8 µM, respectively.
As for “ESVRGFDTWV [phage-selected peptide, Scribble PDZ2]”, the occurence in [1] was 1.
Same read-out and setting: to “RKSRTFETWV [phage-selected peptide, Scribble PDZ2]” belongs 1.
With TGWDTWV, in [7], the IC50 is 4.5 to 5 µM.
Turning to Ac-WDTWV [Ac-WDTWV], in [8], the IC50 was found to be 1.7 µM and the “fold less potent than Ac-WETWV” value came out at 3.4 fold.
Take Ac-WESWV [Ac-WESWV]: in assay [8], the IC50 amounted to 2.5 µM and the “fold less potent than Ac-WETWV” value worked out at 5.2 fold.
On to Ac-WETYV [Ac-WETYV], for which, in [9], the 50% inhibitory concentration (IC50) was found to be 42.5 µM and the “fold less potent than Ac-WETWV” value is 86.7 fold.
As for Ac-WEVWV [Ac-WEVWV], in assay [8], the IC50 worked out at 4.8 µM and the “fold less potent than Ac-WETWV” value worked out at 9.8 fold.
With Ac-WETFV [Ac-WETFV], in [9], the IC50 is 14.5 µM and the “fold less potent than Ac-WETWV” value is 295 fold.
With TGWETWV (test peptide in solution), the IC50 in assay [7] is 0.5 to 1 µM.
Still for that read-out and setting: in the case of DVPA (also called DVPA ligand) it was > 100 µM.
For the molecule Ac-WETAV [Ac-WETAV], in assay [10], the 50% inhibitory concentration (IC50) amounted to 34 µM and the “fold less potent than Ac-WETWV” value stood at 69.3 fold. Moreover, in [9], the IC50 turned out to be 34 µM and the “fold less potent than Ac-WETWV” value turned out to be 69.3 fold.
